Experimental data published in publication PMC6162275.

Target: C-terminally truncated SthK 1-420
Assay: high-speed atomic force microscopy (HS-AFM); SthK reconstituted in lipid bilayers (E. coli polar lipid extract, lipid-to-protein ratio 0.8 to 1.0 w:w) as 2D-crystals, adsorbed on mica; imaging buffer 20 mM HEPES pH 8.0, 100 mM KCl, 100 uM cAMP; the oligomer is seen in topographs of single channels

Substance: C-terminally truncated SthK 1-420 (domain or fragment)
- stoichiometry N: 4
